In patent US20240368286A1 (SHANGHAI JMT BIO TECHNOLOGY, published 2024):
Changes are numbered by the printed parent chain.

T1: Human GFRAL (hGFRAL) on HEK293 reporter cells with human RET (human, UniProt Q6UXV0 19-394)
T1 sequence (looked up): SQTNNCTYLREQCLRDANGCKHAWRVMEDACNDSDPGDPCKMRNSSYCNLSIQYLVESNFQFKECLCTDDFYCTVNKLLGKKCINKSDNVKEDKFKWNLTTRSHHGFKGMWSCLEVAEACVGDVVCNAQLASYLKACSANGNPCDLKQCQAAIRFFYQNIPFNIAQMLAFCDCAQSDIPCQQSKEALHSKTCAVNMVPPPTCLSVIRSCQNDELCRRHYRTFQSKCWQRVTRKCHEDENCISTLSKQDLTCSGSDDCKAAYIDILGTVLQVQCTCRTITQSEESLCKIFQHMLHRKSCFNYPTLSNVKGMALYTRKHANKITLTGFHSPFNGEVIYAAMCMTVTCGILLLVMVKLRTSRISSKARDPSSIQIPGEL

T2: Mouse GFRAL (mGFRAL) on HEK293 reporter cells with mouse RET (mouse, UniProt Q6SJE0 20-393)
T2 sequence (looked up): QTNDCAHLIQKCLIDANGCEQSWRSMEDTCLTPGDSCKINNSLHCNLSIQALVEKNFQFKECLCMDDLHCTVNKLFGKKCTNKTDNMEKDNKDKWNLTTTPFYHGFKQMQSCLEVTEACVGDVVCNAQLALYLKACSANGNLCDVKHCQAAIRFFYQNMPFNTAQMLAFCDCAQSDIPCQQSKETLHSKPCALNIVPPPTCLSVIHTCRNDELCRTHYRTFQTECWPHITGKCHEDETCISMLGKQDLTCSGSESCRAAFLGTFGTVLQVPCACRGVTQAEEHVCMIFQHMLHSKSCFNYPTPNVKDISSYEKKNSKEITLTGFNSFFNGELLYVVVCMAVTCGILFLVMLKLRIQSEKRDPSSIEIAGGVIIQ

T3: Human GFRAL-His protein (human, UniProt Q6UXV0 19-351)
T3 construct: also called human GFRAL-His fusion protein; not shown: His tag
T3 sequence (looked up): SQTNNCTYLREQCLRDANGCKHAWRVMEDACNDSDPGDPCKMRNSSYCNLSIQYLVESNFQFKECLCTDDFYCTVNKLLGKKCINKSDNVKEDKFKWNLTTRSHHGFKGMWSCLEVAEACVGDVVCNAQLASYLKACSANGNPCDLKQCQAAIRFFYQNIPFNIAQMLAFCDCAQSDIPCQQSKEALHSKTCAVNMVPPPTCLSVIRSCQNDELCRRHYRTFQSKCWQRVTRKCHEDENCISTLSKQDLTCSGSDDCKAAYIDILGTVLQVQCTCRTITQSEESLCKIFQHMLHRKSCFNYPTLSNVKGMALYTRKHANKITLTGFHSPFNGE

B1: 2D4H6aL6b (antibody, V domains shown)
VH: EVQLVESGGGLVKPGGSLRLSCAASGFTFSSFVMSWVRQAPGKGLEWVASITSGGTTFYPESVRGRFTISRDNAKNTLYLQMSSLRAEDTAVYYCARGPPQFSSLSMDYWGQGTTVTVSS
VL: DIQMTQSPSSLSASVGDRVTITCKASQNVGTAVSWFQQKPGKAPKLLIYSASNRYTGVPSRFSGSGSGTDFTLTISSLQPEDFATYYCQQYSSLFTFGGGTKLEIK
B2: 2D4H6cL6c (antibody, V domains shown)
VH: B1 VH with E61D, R64K, K75R, T77I
VL: B1 VL with V19I, S60D
B3: 26D7H1aL2a (antibody, V domains shown)
VH: QVQLVQSGAEVKKPGASVKVSCKASGYTFTDYGMNWVRQAPGQGLEWMGWINTYTGEPTYADDFKDRVTMTTDTSTSTAYMELRSLRSDDTAVYYCARRYGYDAGIDAWGQGTLVTVSS
VL: EIVLTQSPGTLSLSPGERATLSCRASESVDSYGNNLMHWYQQKPGQAPRLLIYLASYLESGVPDRFSGSGSGTDFTLTISRLEPEDFATYYCQQNNESPWTFGQGTKVEIK
B4: 26D7H4aL4a (antibody, V domains shown)
VH: QIQLVQSGAEVKKPGASVKISCKVSGYTFTDYGMNWVRQTPGQGLKWVGWINTYTGEPTYADDFKDRFTFTLDASTSTAYLEIRSLRSDDTAVYFCARRYGYDAGIDAWGQGTLLTVSS
VL: B3 VL with L13V, L21I, D64A, G72R, L82V, V108L
B5: 26D7H2dL2a (antibody, V domains shown)
VH: B3 VH with V20I, E46K, M70F, T72L, T74A
VL: B3 VL
B6: 26D7H2aL2a (antibody, V domains shown)
VH: B3 VH with A24V, M48V, V68F, M70F, T72L, Y95F
VL: B3 VL
B7: 2D4-mVH + mVL (antibody, V domains shown)
VH: EVNLVESGGGLVKPGGPLKLSCAASGFTFSSFVMSWVRQTPEKRLEWVASITSGGTTFYPDSVKGRFTISRDNARNILYLQMSNLRSGDTAMYYCARGPPQFSSLSMDYWGQGTSVTVSS
VL: DIVMTQSQKFMSTSVGDRITITCKASQNVGTAVSWFQQKPGQVPKLLIYSASNRYTGVPDRFTGSGSGTEFTLTISNIQSEDLADYFCQQYSSLFTFGSGTKLEIK
B8: 26D7H5eL5c (antibody, V domains shown)
VH: QVQLVQSGSELKKPGASVKVSCKVSGYTFTDYGMNWVRQAPGQGLEWVGWINTYTGEPTYADDFKDRFVFSLDTSVSTAYLQISSLKAEDTAVYYCARRYGYDAGIDAWGQGTTVTVSS
VL: DIVLTQSPASLAVSPGQRATITCRASESVDSYGNNLMHWYQQKPGQPPKLLIYLASYLESGVPARFSGSGSGTDFTLTINPVEANDTANYYCQQNNESPWTFGGGTKLEIK
B9: 26D7-mVH + mVL (antibody, V domains shown)
VH: QIQLVQSGPELKKPGETVKISCKVSGYTFTDYGMNWVKQTPGKDLKWVGWINTYTGEPTYADDFKDRFAFSLEASASTAYLQINNLKNEDTATYFCARRYGYDAGIDCWGQGTTLTVSS
VL: B8 VL with D1N, A9P, P15L, T22S, G72R, N80D, N85D, T87A, N89T, S98D
B10: 26D7H5fL5c (antibody, V domains shown)
VH: B8 VH with V2I, V20I, T74A
VL: B8 VL
B11: 33B12 (antibody, V domains shown)
VH: QVQLQQPGTELVKPGASVKLSCKASGYTFTRNWMHWLKQRPGQGLEWIGEIDPSDSYTHYNQKFKGKATLTVEMSSSTAYMQLRSLTSEDSAVYYCARVGNYDNGTDRLYAMDYWGQGTSVTVSS
VL: DIVLTQSPASLAVSLGQRATISCRASESVDNFGNTFLHWFRQKPGQPPKLLIYRASNLESGIPARFSGSGSRTDFTLTINPVEADDVATYYCQQNNEDPWTFGGGTKLEIK
notes: Murine hybridoma antibody, purified
B12: 82G8 (antibody, V domains shown)
VH: QVQLKESGPGLVAPSQSLSITCTVSGFSLTGHGVNWVRQPPGKGLEWLGMIWGDGYTDYNSALKSRLSISKDNSKSQVFLKMNSLQTDDTATYYCARDTYGRTYDYAMDYWGQGTSVTVSS
VL: B11 VL with T20A, F32Y, T35S, L37M, F40Y, R41Q, N95S, W100R
notes: as for B11
B13: 96C12 (antibody, V domains shown)
VH: RVQLRESGPGLVAPSQSLSITCTVSGFSLTGYSVNWVRQPPGKGLEWLGMIWGDGSTDYNSALKSRLSISKDNSKSQVFLKMNSLQTDDTARYYCARDRDYRYDGGYIMDSWGQGTSVTVSS
VL: B11 VL with A9G, T35S, F40Y, R41Q, I62V, N80S, N95S, W100R, K111R
notes: as for B11
B14: 36D1 (antibody, V domains shown)
VH: B11 VH with L11F, E73D, M74K, R84S, T106K
VL: B11 VL
notes: as for B11
B15: 90E1 (antibody, V domains shown)
VH: EVQLQQSGPELVKPGASVKMSCKASGYTFTSYVIHWVKQEPGQGLEWIGYINPYNDDINYNEKFKGKATLTSDKSSSTAYMEFSSLTSEDSAVYYCARYDYDWYFDVWGAGTAVTVSS
VL: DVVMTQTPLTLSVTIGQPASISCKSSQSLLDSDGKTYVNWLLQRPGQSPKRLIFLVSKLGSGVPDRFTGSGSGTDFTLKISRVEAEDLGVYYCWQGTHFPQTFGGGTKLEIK
B16: 61G8 (antibody, V domains shown)
VH: QVQLKESGPGLVAPSQSLSITCTVSGFSLTGYGVNWVRQSPGKGLEWLGMIWGDGTTDYNSALKSRLTIRKDNSKSQVFLRMNSLQTDDTARYYCARDPKYNYGYAMDYWGQGTSVTVSS
VL: DIVLTQAPGSLAVSLGQRATISCRASESVDNFGNSFMHWYQQKPGQSPKLLIYRASNLESGIPARFSGSGSRTDFTLTINPVEADDVATYYCQQTNEEPYTFGGGTKLEIE
notes: as for B11

Each binder was assayed against T1, Human GFRAL (hGFRAL) on HEK293 reporter … (assay: cell-based or functional assay).

IC50 (nM), luciferase reporter gene assay, Human GFRAL/human RET | Binder
24.4 nM | B1
22.5 nM | B2
2.6 nM | B3
5.7 nM | B4
6.5 nM | B5
7.6 nM | B6
23.8 nM | B7
8.3 nM | B8
8.7 nM | B9
8.9 nM | B10

Each binder was assayed against T2, Mouse GFRAL (mGFRAL) on HEK293 reporter … (assay: cell-based or functional assay).

IC50 (nM), luciferase reporter gene assay, Mouse GFRAL/mouse RET | Binder
1.4 nM | B1
1.3 nM | B2
7.7 nM | B3
0.1 nM | B4
3 nM | B5
1.6 nM | B6
1.4 nM | B7
0.7 nM | B8
0.7 nM | B9
0.4 nM | B10

Target: T1, Human GFRAL (hGFRAL) on HEK293 reporter …
Assay: cell-based or functional assay
Remark: another data set of the same source

IC50 (nM), luciferase reporter gene assay, Human GFRAL/human RET | Binder
7.04 nM | B11
5.67 nM | B12
6.42 nM | B13
6.89 nM | B14
81.4 nM | B15
11.6 nM | B16

Target: T2, Mouse GFRAL (mGFRAL) on HEK293 reporter …
Assay: cell-based or functional assay
Remark: another data set of the same source

IC50 (nM), luciferase reporter gene assay, Mouse GFRAL/mouse RET | Binder
> 694 nM | B11
> 694 nM | B12
> 694 nM | B13
> 694 nM | B14
75.5 nM | B15
> 694 nM | B16

Each binder was assayed against Cynomolgus monkey GFRAL-His protein (cynomolgus monkey) (assay: ELISA, antigen coated on plate, purified antibody titrated, HRP anti-mouse IgG detection).
Procedure: (§1) The ELISA assay had the following protocols. Human GFRAL-His protein, cynomolgus monkey GFRAL-His protein, or mouse GFRAL-Fc protein were coated on 96-well plates, and after blocking the wells with PBS/1% BSA solution, the hybridoma supernatant or purified antibodies were added to the reaction wells. After incubation for 1 hour at room temperature, HRP-labeled anti-mouse IgG (Fab region) antibody was added to the reaction wells to incubate for an additional hour at room temperature. After the substrate and stop solution were added successively, the OD₄₅₀ values were read. The OD₄₅₀ values were used to verify and assess the binding ability of the antibodies to the GFRAL proteins.

EC50 | Binder
0.08 nM | B11
0.04 nM | B12
0.03 nM | B13
0.07 nM | B14
0.08 nM | B16

The binders below were run against T3, Human GFRAL-His protein in the same assay as above.
Procedure: as §1

EC50 | Binder
0.06 nM | B11
0.03 nM | B12
0.03 nM | B13
0.18 nM | B14
0.07 nM | B16
